Laboratory results as given in patent US20060211003.

System: putative Thermus thermophilus Pol III ε-subunit

Thermus thermophilus DNA Pol III α-subunit (DnaE)
3′→5′ exonuclease activity: This interaction stimulates the 3′→5′ exonuclease activity 5 fold
